{
  "source": "patent US20180230200A1",
  "about": "(CITY OF HOPE, published 2018)",
  "key": {"gH of HCMV strain TB40/E": {"target": "gH of HCMV strain TB40/E (human cytomegalovirus strain TB40/E)", "assay": "cell-based or functional assay"}, "[1]": {"target": "T1, UL128 expressed from MVA in BHK-21 cells (human cytomegalovirus, UniProt P16837 28-171)", "T1 construct": "whole, on cells", "T1 sequence": "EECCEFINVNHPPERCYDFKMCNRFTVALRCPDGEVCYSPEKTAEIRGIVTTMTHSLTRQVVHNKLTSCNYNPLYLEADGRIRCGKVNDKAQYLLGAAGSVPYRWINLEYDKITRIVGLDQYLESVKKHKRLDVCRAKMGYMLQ", "assay": "intracellular FC, MVA-infected BHK-21", "experimental": "(§1) NAb subunit specificity was evaluated by staining BHK-21 cells infected with different MVA recombinants. One or more vectors were used to co-infect BHK-21 at an MOI of 5. […] Four hours post infection cells were fixed and permeabilized using Cytofix/Cytoperm solution (BD Biosciences). NAbs (1 mg/ml) were diluted 1:500 in perm/wash buffer (BD) and added to the cells for 1 hour at 4° C. […] Cells were washed again and resuspended in PBS/0.1% BSA. Fifteen thousand events were collected using the Gallios Flow Cytometer (Beckman Coulter, Miami, Fla., USA) and analyzed with FlowJo Software (Tree Star, Ashland, Oreg., USA). Uninfected cells and cells infected with MVA-Venus were used as controls. GFP expression was analyzed for confirming MVA infection since all the constructs contain a GFP expression cassette (36, 62).\n(§2) In order to determine the antigen specificity of the vaccine-derived NAbs, intracellular flow cytometry (FC) staining of permeabilized BHK-21 cells infected with MVA expressing single subunits or combinations of two or more subunits of the PC was evaluated."}, "[2]": {"target": "T2, UL130 expressed from MVA in BHK-21 cells (human cytomegalovirus, UniProt P16772 1-214)", "T2 construct": "whole, on cells", "assay": "intracellular FC, MVA-infected BHK-21", "experimental": "as §1, §2"}, "[3]": {"target": "T3, UL131A expressed from MVA in BHK-21 cells (human cytomegalovirus, UniProt F5HET4 19-129)", "T3 construct": "whole, on cells", "assay": "intracellular FC, MVA-infected BHK-21", "experimental": "as §1, §2"}, "[4]": {"target": "T4, UL128/UL130 co-expressed from MVA in BHK-21 cells (human cytomegalovirus, UniProt P16837 28-171; P16772 1-214)", "T4 construct": "whole, on cells", "assay": "intracellular FC, MVA-infected BHK-21", "experimental": "as §1, §2"}, "[5]": {"target": "T5, UL128/UL131A co-expressed from MVA in BHK-21 cells (human cytomegalovirus, UniProt P16837 28-171; F5HET4 19-129)", "T5 construct": "whole, on cells", "assay": "intracellular FC, MVA-infected BHK-21", "experimental": "as §1, §2"}, "[6]": {"target": "T6, UL130/UL131A co-expressed from MVA in BHK-21 cells (human cytomegalovirus, UniProt P16772 1-214; F5HET4 19-129)", "T6 construct": "whole, on cells", "assay": "intracellular FC, MVA-infected BHK-21", "experimental": "as §1, §2"}, "[7]": {"target": "T7, UL128/UL130/UL131A co-expressed from MVA in BHK-21 cells (human cytomegalovirus, UniProt P16837 28-171; P16772 1-214; F5HET4 19-129)", "T7 construct": "whole, on cells", "assay": "intracellular FC, MVA-infected BHK-21", "experimental": "as §1, §2"}, "gH of HCMV strain Towne": {"target": "T8, gH of HCMV strain Towne (human cytomegalovirus strain Towne, UniProt P17176 30-742)", "T8 sequence": "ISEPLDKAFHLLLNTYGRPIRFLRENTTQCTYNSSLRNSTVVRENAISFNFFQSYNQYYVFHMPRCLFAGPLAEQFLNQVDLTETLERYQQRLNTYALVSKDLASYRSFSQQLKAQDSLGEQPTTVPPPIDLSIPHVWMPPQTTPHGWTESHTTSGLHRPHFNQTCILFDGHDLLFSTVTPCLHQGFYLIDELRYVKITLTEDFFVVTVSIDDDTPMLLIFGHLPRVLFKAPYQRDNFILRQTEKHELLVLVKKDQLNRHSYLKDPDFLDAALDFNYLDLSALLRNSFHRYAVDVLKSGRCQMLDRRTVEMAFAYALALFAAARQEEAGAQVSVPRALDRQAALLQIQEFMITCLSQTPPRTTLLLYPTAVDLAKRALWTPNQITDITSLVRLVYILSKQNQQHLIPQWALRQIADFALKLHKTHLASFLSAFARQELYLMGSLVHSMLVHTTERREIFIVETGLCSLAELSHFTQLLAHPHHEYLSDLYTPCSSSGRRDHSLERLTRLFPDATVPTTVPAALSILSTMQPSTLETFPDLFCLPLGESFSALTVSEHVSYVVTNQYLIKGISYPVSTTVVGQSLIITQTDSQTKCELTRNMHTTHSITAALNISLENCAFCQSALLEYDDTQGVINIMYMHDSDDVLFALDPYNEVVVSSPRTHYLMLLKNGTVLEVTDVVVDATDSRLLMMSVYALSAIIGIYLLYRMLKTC", "assay": "immunoblot, lysates of HCMV-infected MRC-5"}, "[8]": {"target": "T9, gH/gL/UL128/UL130/UL131A pentamer complex expressed from MVA-PC in BHK-21 cells (human cytomegalovirus, UniProt P12824 24-743; P16832 31-278; P16837 28-171; P16772 1-214; F5HET4 19-129)", "T9 construct": "whole, on cells", "assay": "FC, biotinylated NAb titrated on MVA-PC-infected BHK-21 (cell surface PC)"}, "[9]": {"target": "T9, gH/gL/UL128/UL130/UL131A pentamer …", "assay": "FC competition, MVA-PC BHK-21; unlabelled row Ab; competitor: biotinylated 1B2"}, "[10]": {"target": "T9, gH/gL/UL128/UL130/UL131A pentamer …", "assay": "FC competition, MVA-PC BHK-21; unlabelled row Ab; competitor: biotinylated 12E2"}, "[11]": {"target": "T9, gH/gL/UL128/UL130/UL131A pentamer …", "assay": "FC competition, MVA-PC BHK-21; unlabelled row Ab; competitor: biotinylated 13B5"}, "[12]": {"target": "T9, gH/gL/UL128/UL130/UL131A pentamer …", "assay": "FC competition, MVA-PC BHK-21; unlabelled row Ab; competitor: biotinylated 21F6"}, "[13]": {"target": "T9, gH/gL/UL128/UL130/UL131A pentamer …", "assay": "FC competition, MVA-PC BHK-21; unlabelled row Ab; competitor: biotinylated 18F10"}},
  "data": [
    {"binder": "18F10 (antibody, V domains shown, also called NAb 18F10) VH: QVTLKESGPGILQPSQTLSLTCSFSGFSLSTYGIGIGWIRQPSGKGLEWLAHIWWNDNKNYNTALKSRLTISKDPSNNQVFLKIASVDTADTATYFCARTGYFDVWGAGTTVTVSS VL: DVVLTQTPLSLPVSLGDQVSISCSSSQSLVHSNGNTYIHWYLQKPGQSPKLLIYTVSNRFSGVPDRFSGSGSGTDFTLKISRVEAEDLGLYFCSQSTHVPYTFGGGTKLEIK", "values": [
      {"measurement": "IC50, inhibition of TB40/E cell-to-cell spread in ARPE-19", "setting": "gH of HCMV strain TB40/E", "result": 95, "unit": "µg/mL"},
      {"measurement": "IC50, neutralization of TB40/E infection of ARPE-19", "setting": "gH of HCMV strain TB40/E", "result": 0.763, "unit": "µg/mL"},
      {"measurement": "IC50, neutralization of TB40/E infection of CTB", "setting": "gH of HCMV strain TB40/E", "result": 8.8, "unit": "µg/mL"},
      {"measurement": "IC50, neutralization of TB40/E infection of HUVEC", "setting": "gH of HCMV strain TB40/E", "result": 1.49, "unit": "µg/mL"},
      {"measurement": "IC50, neutralization of TB40/E infection of MRC-5", "setting": "gH of HCMV strain TB40/E", "result": "> 25", "unit": "µg/mL"},
      {"measurement": "binding result", "setting": "[1]", "result": "no binding"},
      {"measurement": "binding result", "setting": "[2]", "result": "no binding"},
      {"measurement": "binding result", "setting": "[3]", "result": "no binding"},
      {"measurement": "binding result", "setting": "[4]", "result": "no binding"},
      {"measurement": "binding result", "setting": "[5]", "result": "no binding"},
      {"measurement": "binding result", "setting": "[6]", "result": "no binding"},
      {"measurement": "binding result", "setting": "[7]", "result": "no binding"},
      {"measurement": "binding result", "setting": "gH of HCMV strain Towne", "result": "no binding (tested: 10 µg/ml)"},
      {"measurement": "EC50", "setting": "[8]", "result": 6.5, "unit": "nM"},
      {"measurement": "Binding Inhibition (%)", "setting": "[9]", "result": 0, "unit": "%"},
      {"measurement": "Binding Inhibition (%)", "setting": "[10]", "result": 0, "unit": "%"},
      {"measurement": "Binding Inhibition (%)", "setting": "[11]", "result": 0, "unit": "%"},
      {"measurement": "Binding Inhibition (%)", "setting": "[12]", "result": 0, "unit": "%"},
      {"measurement": "Binding Inhibition (%)", "setting": "[13]", "result": 100, "unit": "%"}
    ]}
  ]
}
